In this test the target is recombinant VEGF165 protein (human) (UniProt P15692). The experiment in a line: SPR in vitro binding, drug and recombinant VEGF165, 37 C.
Chain of recombinant VEGF165 protein (human) (P15692 other isoform, or with tags, fused parts or gaps): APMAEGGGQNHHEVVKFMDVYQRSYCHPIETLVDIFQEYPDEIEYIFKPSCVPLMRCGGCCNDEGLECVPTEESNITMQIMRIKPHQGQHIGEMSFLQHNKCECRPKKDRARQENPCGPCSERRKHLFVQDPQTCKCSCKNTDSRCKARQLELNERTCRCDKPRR

For the substance aflibercept (Fc fusion), the Kd worked out at 0.457 nM.

(Values after US20230416351A1.)
